Assay results taken from paper PMC9864776, “Synthesis of Novel Polymer-Assisted Organic-Inorganic Hybrid Nanoflowers and Their Application in Cascade Biocatalysis” (Molecules, 2023).

Substrate: OC[C@H]1OC(O)[C@H](O)[C@@H](O)[C@@H]1O
Test: purified protein
Type: biochemical, Aspergillus niger
Conditions: apparent Km of the whole cascade with free HRP, glucose 50-175 µM (all below Km), TMB 2 mM, 0.2 M acetate buffer (pH 4 in the standard assay), 20-23 °C, free enzymes

B1: glucose oxidase (GOx), Aspergillus niger type VIII (Aspergillus niger) (protein)
chain: LPHYIRSNGIEASLLTDPKDVSGRTVDYIIAGGGLTGLTTAARLTENPNISVLVIESGSYESDRGPIIEDLNAYGDIFGSSVDHAYETVELATNNQTALIRSGNGLGGSTLVNGGTWTRPHKAQVDSWETVFGNEGWNWDNVAAYSLQAERARAPNAKQIAAGHYFNASCHGVNGTVHAGPRDTGDDYSPIVKALMSAVEDRGVPTKKDFGCGDPHGVSMFPNTLHEDQVRSDAAREWLLPNYQRPNLQVLTGQYVGKVLLSQNGTTPRAVGVEFGTHKGNTHNVYAKHEVLLAAGSAVSPTILEYSGIGMKSILEPLGIDTVVDLPVGLNLQDQTTATVRSRITSAGAGQGQAAWFATFNETFGDYSEKAHELLNTKLEQWAEEAVARGGFHNTTALLIQYENYRDWIVNHNVAYSELFLDTAGVASFDVWDLLPFTRGYVHILDKDPYLHHFAYDPQYFLNELDLLGQAAATQLARNISNSGAMQTYFAGETIPGDNLAYDADLSAWTEYIPYHFRPNYHGVGTCSMMPKEMGGVVDNAARVYGVQGLRVIDGSIPPTQMSSHVMTVFYAMALKISDAILEDYASMQ
notes: commercial native enzyme, Merck/Sigma Aldrich, type VIII; free in solution, together with HRP
Km: 1198 µM
